According to article PMC10127198, “Pseudouridine-Modifying Enzymes SapB and SapH Control Entry into the Pseudouridimycin Biosynthetic Pathway” (ACS Chemical Biology, 2023):

Key:
[1] = biological target: T1, SapH (Streptomyces albus, UniProt A0ACH0CL42); assay: relative activity by HPLC, coupled with SapB; assay type: biochemical; details: amino donor 5 mM, 1.5 mM uridine, 1 μM SapB, 2 μM SapH, pH 7.5
T1 construct: gene NR995_03130; homodimer

[2] = tested on: O=c1[nH]cc([C@@H]2O[C@H](CO)[C@@H](O)[C@H]2O)c(=O)[nH]1; assay: purified protein; details: 50 mM Tris-HCl pH 7.5, 10 mM NaCl, 10 mM KCl, 5 mM MgCl2, O2 as electron acceptor
[3] = tested on: O=c1[nH]c(=O)c([C@@H]2O[C@H](CO)[C@@H](O)[C@H]2O)co1; assay: purified protein; details: 50 mM Tris-HCl pH 7.5, 10 mM NaCl, 10 mM KCl, 5 mM MgCl2, O2 as electron acceptor
[4] = biological target: T1, SapH; assay: X-ray crystallography, […] Å; assay type: binding; details: active site at dimer interface; non-covalent (no link to Lys289); crystals pH 7.5, 20 °C
[5] = biological target: SapH (Streptomyces albus DSM 40763); assay: crystal structure; hanging drop vapour diffusion at 20 °C; SapH 9.9 mg/mL in 50 mM TAPS pH 8.5, 250 mM NaCl, 10% glycerol; well 0.1 M BisTRIS-propane, 0.2 M Na-K-phosphate, 27.5% PEG3350, pH 7.5; space group P212121; dimer in the asymmetric unit
[6] = biological target: T2, SapB (Streptomyces albus, UniProt A0ACH0CL45); assay: LC/MS of cofactor released by boiling; assay type: binding; details: copurified, tightly bound
T2 construct: gene NR995_03120; N-terminal His6-tag, codon-optimized synthetic gene in pBADHisBd, E. coli TOP10
T2 sequence (A0ACH0CL45 1-509): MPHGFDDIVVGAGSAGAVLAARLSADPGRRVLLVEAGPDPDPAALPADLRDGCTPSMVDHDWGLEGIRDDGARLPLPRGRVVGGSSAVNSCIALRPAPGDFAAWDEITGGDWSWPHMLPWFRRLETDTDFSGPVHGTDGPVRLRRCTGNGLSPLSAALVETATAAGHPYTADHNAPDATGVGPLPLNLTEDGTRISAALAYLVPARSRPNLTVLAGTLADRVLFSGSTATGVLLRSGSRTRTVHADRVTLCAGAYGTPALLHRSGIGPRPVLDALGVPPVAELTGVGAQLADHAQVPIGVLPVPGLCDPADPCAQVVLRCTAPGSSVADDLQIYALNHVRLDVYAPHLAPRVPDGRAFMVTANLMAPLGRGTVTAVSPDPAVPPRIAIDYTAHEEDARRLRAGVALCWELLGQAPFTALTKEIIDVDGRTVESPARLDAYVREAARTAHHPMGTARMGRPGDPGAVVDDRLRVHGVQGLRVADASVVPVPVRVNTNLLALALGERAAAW

T1 sequence (A0ACH0CL42 entry or part of it): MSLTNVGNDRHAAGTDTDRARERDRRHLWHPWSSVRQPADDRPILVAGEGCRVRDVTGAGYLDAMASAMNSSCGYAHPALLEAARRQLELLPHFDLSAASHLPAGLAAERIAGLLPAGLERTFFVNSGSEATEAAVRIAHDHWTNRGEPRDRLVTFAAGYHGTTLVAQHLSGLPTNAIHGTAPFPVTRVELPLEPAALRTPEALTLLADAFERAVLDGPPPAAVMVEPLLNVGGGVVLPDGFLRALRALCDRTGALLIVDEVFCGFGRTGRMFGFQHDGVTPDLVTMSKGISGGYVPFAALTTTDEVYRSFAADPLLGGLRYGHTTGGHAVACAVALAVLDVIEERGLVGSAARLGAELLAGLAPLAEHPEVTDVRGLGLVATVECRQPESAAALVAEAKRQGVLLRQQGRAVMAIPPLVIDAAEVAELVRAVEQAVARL

With `N=C(N)NCCC[C@H](N)C(=O)O` [arginine] the “relative activity by HPLC, coupled with SapB” value [1] was “shows preference for methionine, phenylalanine, and arginine”.

SapB (Streptomyces albus) showed a Km [2] of 34 ± 5 µM, a kcat [2] of 0.019 s⁻¹ and a kcat/Km [2] of 550 M⁻¹ s⁻¹. It also gave a Km [3] of 181 ± 25 µM, a kcat [3] of 0.0172 s⁻¹ and a kcat/Km [3] of 95 M⁻¹ s⁻¹.

`Cc1ncc(COP(=O)(O)O)c(CN)c1O` [pyridoxamine-5′-phosphate] was tested, and the “X-ray crystallography, 1.55 Å” value [4] was “The bound PLP was modeled as pyridoxamine, according to the observed electron density map”.

SapH (enzyme) was tested, and the stoichiometry N [5] was 2.

For `Cc1cc2nc3c(=O)[nH]c(=O)nc-3n(C[C@H](O)[C@H](O)[C@H](O)COP(=O)(O)OP(=O)(O)OC[C@H]3O[C@@H](n4cnc5c(N)ncnc54)[C@H](O)[C@@H]3O)c2cc1C` [flavin adenine dinucleotide], the “LC/MS of cofactor released by boiling” value [6] was “LC/MS) analysis identified the SapB cofactor to be flavin adenine dinucleotide (FAD)”.
